19 molecules from US20240279281A1, “Peptide Inhibitors of Interleukin-23 Receptor” (Janssen Pharmaceutica NV, priority 2023, published 2024) can be followed below.

Starred links: 1 amine or outer side, 2 acyl side, 3 side chain; linkers in the order of their positions; H or OH if unused. Positions of bridges follow the written chain, without caps; N, C: chain ends. Non-standard residues stand in square brackets, D forms with d. No end group written: not given here. X5 = 2‑amino‑3‑(3-carbamoyl-1H-pyrazol-4-yl)propanoic acid, NC(=O)c1n[nH]cc1CC(N[*:1])C(=O)[*:2]; X6 = 2‑amino‑3‑(4-carbamoyl-1H-imidazol-1-yl)propanoic acid, NC(=O)c1cn(CC(N[*:1])C(=O)[*:2])cn1; 2Nal(6-OH) = N[C@@H](Cc1ccc2cc(O)ccc2c1)C(=O)O; Trp(7-Me) = Cc1cccc2c(C[C@H](N)C(=O)O)c[nH]c12; AEF = NCCOc1ccc(C[C@H](N)C(=O)O)cc1; 3Pal = N[C@@H](Cc1cccnc1)C(=O)O; Pen = CC(C)(S)[C@H](N)C(=O)O; Thp = NC1(C(=O)O)CCOCC1; Sar = CNCC(=O)O

Sequences and labels used below:
B1: SEQ ID NO: 85 (peptide)
peptide: K[Pen]NT[Trp(7-Me)]K(Ac)[Pen][2‑amino‑3‑(4-(2-aminoethoxy)phenyl)propanoic acid][2‑amino‑3‑(6-hydroxynaphthalen-2-yl)propanoic acid][Thp]K(Ac)N[3Pal][Sar]
modifications: not fully specified (bridges); ends and bridges not checked; also: K1: lipidated lysine, lipid not given here
B2: SEQ ID NO: 80 (peptide)
peptide: [Pen]NT[Trp(7-Me)]K(Ac)[Pen][2‑amino‑3‑(4-(2-aminoethoxy)phenyl)propanoic acid][2‑amino‑3‑(6-hydroxynaphthalen-2-yl)propanoic acid][Thp]KN[3Pal][Sar]
modifications: not fully specified (bridges); ends and bridges not checked; also: K10: lipidated lysine, lipid not given here
B3: SEQ ID NO: 84 (peptide)
peptide: R[Pen]NT[Trp(7-Me)]K[Pen][2‑amino‑3‑(4-(2-aminoethoxy)phenyl)propanoic acid][2‑amino‑3‑(6-hydroxynaphthalen-2-yl)propanoic acid][Thp]EN[3Pal][Sar]
modifications: not fully specified (bridges); ends and bridges not checked; also: K6: lipidated lysine, lipid not given here
B4: SEQ ID NO: 86 (peptide)
peptide: R[Pen]NT[Trp(7-Me)]K(Ac)[Pen][2‑amino‑3‑(4-(2-aminoethoxy)phenyl)propanoic acid][2‑amino‑3‑(6-hydroxynaphthalen-2-yl)propanoic acid][Thp]KN[3Pal][Sar]
modifications: not fully specified (bridges); ends and bridges not checked; also: K11: lipidated lysine, lipid not given here
B5: SEQ ID NO: 87 (peptide)
peptide: R[Pen]NT[Trp(7-Me)]K(Ac)[Pen][2‑amino‑3‑(4-(2-aminoethoxy)phenyl)propanoic acid][2‑amino‑3‑(6-hydroxynaphthalen-2-yl)propanoic acid][Thp]KN[3Pal][Sar]
modifications: not fully specified (bridges); ends and bridges not checked; also: K11: lipidated lysine, lipid not given here
B6: SEQ ID NO: 427 (peptide)
peptide: K[Pen]NT[Trp(7-Me)]K(Ac)[Pen][2‑amino‑3‑(4-(2-aminoethoxy)phenyl)propanoic acid][2‑amino‑3‑(6-hydroxynaphthalen-2-yl)propanoic acid][Thp]K(Ac)N[3Pal][Sar]
modifications: not fully specified (residue 1, bridges); ends and bridges not checked; also: Lys1 lipidated (lipid not given here)
B7: SEQ ID NO: 423 (peptide)
peptide: K[Pen]ET[Trp(7-Me)]K(Ac)[Pen][AEF][2Nal(6-OH)][Thp]K(Ac)N[3Pal][Sar]
modifications: not fully specified (bridges); ends and bridges not checked; also: lipidated Lys1, lipid not given here
B8: SEQ ID NO: 81 (peptide)
peptide: [Pen]NT[Trp(7-Me)]K[Pen][2‑amino‑3‑(4-(2-aminoethoxy)phenyl)propanoic acid][2‑amino‑3‑(6-hydroxynaphthalen-2-yl)propanoic acid][Thp]K(Ac)N[3Pal][Sar]
modifications: not fully specified (bridges); ends and bridges not checked; also: K5: lipidated lysine, lipid not given here
B9: SEQ ID NO: 425 (peptide)
peptide: R[Pen]KT[Trp(7-Me)]K(Ac)[Pen][AEF][2Nal(6-OH)][Thp]EN[3Pal][Sar]
modifications: not fully specified (residue 3, bridges); ends and bridges not checked; also: K3: lipidated lysine
B10: SEQ ID NO: 420 (peptide)
peptide: R[Pen]ET[Trp(7-Me)]K(Ac)[Pen][AEF][2Nal(6-OH)][Thp]KN[3Pal][Sar]
modifications: not fully specified (bridges); ends and bridges not checked; also: K11: lipidated lysine

For this assay, the target named is T1, interleukin-23 receptor (IL-23R), Q5VWK5.
T1 chain: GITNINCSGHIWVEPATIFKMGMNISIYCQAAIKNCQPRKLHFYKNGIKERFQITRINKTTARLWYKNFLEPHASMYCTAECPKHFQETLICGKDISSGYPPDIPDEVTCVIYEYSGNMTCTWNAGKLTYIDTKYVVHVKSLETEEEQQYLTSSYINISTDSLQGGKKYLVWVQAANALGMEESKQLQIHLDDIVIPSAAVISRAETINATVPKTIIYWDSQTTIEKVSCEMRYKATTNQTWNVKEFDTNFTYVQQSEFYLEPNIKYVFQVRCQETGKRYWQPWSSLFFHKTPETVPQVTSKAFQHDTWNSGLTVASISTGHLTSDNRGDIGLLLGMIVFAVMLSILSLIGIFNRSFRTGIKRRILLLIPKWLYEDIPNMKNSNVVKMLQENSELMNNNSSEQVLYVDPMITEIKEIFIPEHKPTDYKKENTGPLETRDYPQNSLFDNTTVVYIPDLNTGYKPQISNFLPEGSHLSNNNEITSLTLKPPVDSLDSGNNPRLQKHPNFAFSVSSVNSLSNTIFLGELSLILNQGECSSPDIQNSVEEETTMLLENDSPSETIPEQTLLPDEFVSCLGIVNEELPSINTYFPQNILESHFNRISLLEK
In words: cell-based or functional assay.
Molecule R[Pen]NT[Trp(7-Me)]K(Ac)[Pen][2‑amino‑3‑(4-(2-aminoethoxy)phenyl)propanoic acid][3‑(6-(1H-pyrazol-4-yl)naphthalen-2-yl)‑2‑aminopropanoic acid][Thp]EN[Thp] (not fully specified (bridges); ends and bridges not checked) [SEQ ID NO: 433] came in with a PBMC pSTAT3 IC50 greater than 1 nM.

In turn, B1 returned an IL23R Reporter Assay IC50 of less than 10 nM.

B2 gave an IL23R Reporter Assay IC50 of less than 10 nM.

As to R[Pen]NT[Trp(7-Me)]K(Ac)[Pen][2‑amino‑3‑(4-(2-aminoethoxy)phenyl)propanoic acid][2‑amino‑3‑(6-hydroxynaphthalen-2-yl)propanoic acid][Thp]EN[X5][Sar] (disulfide 2-7 (inferred); ends not checked) [SEQ ID NO: 440], the PBMC pSTAT3 IC50 is greater than 1 nM.

With R[Pen]NT[Trp(7-Me)]K(Ac)[Pen][AEF][2Nal(6-OH)][Thp]EN[X6][Sar] (not fully specified (bridges); ends and bridges not checked) [SEQ ID NO: 419], the PBMC pSTAT3 IC50 was less than 0.1 nM.

R[Pen]NT[Trp(7-Me)]K(Ac)[Pen][2‑amino‑3‑(4-(2-aminoethoxy)phenyl)propanoic acid][2‑amino‑3‑(6-(4-methoxyphenyl)naphthalen-2-yl)propanoic acid][Thp]EN[Thp] (disulfide 2-7 (inferred); ends not checked) [SEQ ID NO: 438]: the PBMC pSTAT3 IC50 is greater than 1 nM.

On to R[Pen]NT[Trp(7-Me)]K(Ac)[Pen][2‑amino‑3‑(4-(2-aminoethoxy)phenyl)propanoic acid][2‑amino‑3‑(5-bromonaphthalen-2-yl)propanoic acid][Thp]EN[Thp] (disulfide 2-7 (inferred); ends not checked) [SEQ ID NO: 443], for which the PBMC pSTAT3 IC50 is greater than 1 nM.

B3 gave an IL23R Reporter Assay IC50 of less than 10 nM.

B4 had an IL23R Reporter Assay IC50 of less than 10 nM.

In turn, B5 had an IL23R Reporter Assay IC50 of less than 10 nM.

Consider R[Pen]NT[Trp(7-Me)]K(Ac)[Pen][2‑amino‑3‑(4-(2-aminoethoxy)phenyl)propanoic acid][2‑amino‑3‑(6-(3-(trifluoromethyl)-1H-pyrazol-4-yl)naphthalen-2-yl)propanoic acid][Thp]EN[Thp] (not fully specified (bridges); ends and bridges not checked) [SEQ ID NO: 434], for which the PBMC pSTAT3 IC50 was greater than 1 nM.

The molecule R[Pen]NT[Trp(7-Me)]K(Ac)[Pen][N,N,N‑trimethylethanaminium][2‑amino‑3‑(6-hydroxynaphthalen-2-yl)propanoic acid][Thp]EN[3Pal][Sar] (disulfide 2-7 (inferred); not fully specified; ends not checked) [SEQ ID NO: 435] gave a PBMC pSTAT3 IC50 of less than 0.1 nM.

Take B6: the PBMC pSTAT3 IC50 is less than 1 nM.

Molecule B7 gave a PBMC pSTAT3 IC50 of less than 1 nM.

For the molecule B8, the IL23R Reporter Assay IC50 was less than 10 nM.

In the case of R[Pen]ET[Trp(7-Me)]K(Ac)[Pen][AEF][2Nal(6-OH)][Thp]K(Ac)N[3Pal][Sar] (not fully specified (bridges); ends and bridges not checked) [SEQ ID NO: 421], the PBMC pSTAT3 IC50 was less than 1 nM.

R[Pen]NT[Trp(7-Me)]K(Ac)[Pen][N,N,N‑trimethylethanaminium][2‑amino‑3‑(6-hydroxynaphthalen-2-yl)propanoic acid][Thp]EN[3Pal][Sar] (disulfide 2-7 (inferred); not fully specified; ends not checked) [SEQ ID NO: 436] returned a PBMC pSTAT3 IC50 of less than 1 nM.

Regarding B9, the PBMC pSTAT3 IC50 was less than 1 nM.

Molecule B10 came in with a PBMC pSTAT3 IC50 of less than 0.1 nM.
